Results as given in publication PMC12241633, “Irinotecan alleviates chemoresistance to anthracyclines through the inhibition of AARS1-mediated BLM lactylation and homologous recombination repair” (Signal Transduction and Targeted Therapy, 2025).

B1: purified human BLM-K24R protein (natural protein)
chain: not shown
notes: BLM, human, K24R; also called K24R BLM; BLM-K24R mutant; source: E. coli BL21 (DE3), pET28a-sumo, purified (AKTA pure chromatography)
B2: purified human BLM-WT protein (natural protein)
chain: not shown
notes: BLM, human; also called WT BLM; source: E. coli BL21 (DE3), pET28a-sumo, purified (AKTA pure chromatography)

Molecular target: T1, purified human MIB1 protein (human, UniProt Q86YT6 1-1006)
T1 construct: MIB1, human; source: E. coli BL21 (DE3), pET28a-sumo, purified (AKTA pure chromatography)
T1 sequence (Q86YT6 whole entry): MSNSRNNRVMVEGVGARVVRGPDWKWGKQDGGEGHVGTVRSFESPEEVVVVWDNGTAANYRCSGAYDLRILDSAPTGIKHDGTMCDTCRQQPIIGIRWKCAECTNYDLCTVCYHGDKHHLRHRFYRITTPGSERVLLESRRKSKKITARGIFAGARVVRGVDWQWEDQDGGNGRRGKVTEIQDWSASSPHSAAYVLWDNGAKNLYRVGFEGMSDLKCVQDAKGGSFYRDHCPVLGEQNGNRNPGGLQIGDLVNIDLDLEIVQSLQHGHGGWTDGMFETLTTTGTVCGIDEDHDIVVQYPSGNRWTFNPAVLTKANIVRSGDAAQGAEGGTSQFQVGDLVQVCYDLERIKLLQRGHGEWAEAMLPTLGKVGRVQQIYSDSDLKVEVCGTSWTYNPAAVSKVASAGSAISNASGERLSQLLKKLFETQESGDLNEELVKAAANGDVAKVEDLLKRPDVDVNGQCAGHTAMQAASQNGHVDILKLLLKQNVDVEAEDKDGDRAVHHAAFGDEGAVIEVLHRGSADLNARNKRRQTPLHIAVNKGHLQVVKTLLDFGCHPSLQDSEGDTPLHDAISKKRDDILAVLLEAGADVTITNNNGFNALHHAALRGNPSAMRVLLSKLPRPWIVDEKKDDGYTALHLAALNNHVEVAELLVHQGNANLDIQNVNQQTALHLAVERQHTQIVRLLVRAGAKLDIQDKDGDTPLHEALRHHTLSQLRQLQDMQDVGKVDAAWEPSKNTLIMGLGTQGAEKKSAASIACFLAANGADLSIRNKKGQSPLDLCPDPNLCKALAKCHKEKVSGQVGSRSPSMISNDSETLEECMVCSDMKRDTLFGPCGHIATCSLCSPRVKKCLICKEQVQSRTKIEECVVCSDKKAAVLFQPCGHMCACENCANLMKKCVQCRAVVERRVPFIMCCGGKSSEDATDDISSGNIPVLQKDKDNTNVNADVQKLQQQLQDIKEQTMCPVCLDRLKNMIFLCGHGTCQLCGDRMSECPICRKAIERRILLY
Assay: SPR; Biacore T200, CM5 chip, amine coupling in 10 mM sodium acetate pH 4.0 to 5000 RU, 25 °C, running buffer PBS, 0.05% Tween-20, 1% DMSO; multicycle kinetics, 1:1 Langmuir fit; which of the two proteins was immobilised is not stated
Conditions: both partners purified

Binder | Kd
B1 | 26.8 nM
B2 | 121 nM
